The results in this text go back to publication PMC3170884 (Frontiers in Physiology, 2011).

For experiment [1], the target named is recombinant human BMP2 derived from E. coli expression (human) (UniProt P12643). Briefly: SPR.
Experiment [2] concerns the target recombinant human BMP2 derived from E. coli expression (human, UniProt P12643 283-396). Briefly: SPR.

recombinant human BMP2 derived from E. coli expression (human), sequence (P12643 283-396): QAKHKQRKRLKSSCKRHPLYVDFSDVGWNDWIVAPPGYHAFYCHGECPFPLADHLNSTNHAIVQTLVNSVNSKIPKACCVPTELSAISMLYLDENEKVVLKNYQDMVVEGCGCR
recombinant human BMP2 derived from E. coli expression, sequence (P12643 283-396): as above

Regarding “Xenopus Tsg (xTsg) from E. coli, non-glycosylated (natural protein)”, in experiment [1], the Kd amounted to 20.2 nM, the koff came to 0.00071 s⁻¹ and the kon stood at 38000 M⁻¹ s⁻¹.
In the same order, the values of “Xenopus Tsg (xTsg) from insect cells, glycosylated (natural protein)” are 2.5 nM, 0.0002 s⁻¹ and 110000 M⁻¹ s⁻¹.

B1: mouse TWSG1 (mTWSG1) from E. coli, non-glycosylated (natural protein, UniProt Q9EP52 25-222, looked up)
chain: CNKALCASDVSKCLIQELCQCRPGEGNCPCCKECMLCLGALWDECCDCVGMCNPRNYSDTPPTSKSTVEELHEPIPSLFRALTEGDTQLNWNIVSFPVAEELSHHENLVSFLETVNQLHHQNVSVPSNNVHAPFPSDKERMCTVVYFDDCMSIHQCKISCESMGASKYRWFHNACCECIGPECIDYGSKTVKCMNCMF
B1: in experiment [2], the “KD of the low affinity interaction of the biphasic binding” value amounted to 301 nM and the “KD of the slow (high affinity) interaction of the biphasic binding” value came out at 39.6 nM.
